In patent publication US20210388087A1 (Chugai, published 2021):
Residue numbers refer to the chain shown, from its start. Names and notes keep the numbering of the source.

T1: Human CD3eg linker (human)
T1 construct: single-chain construct; also called recombinant human CD3
T1 chain: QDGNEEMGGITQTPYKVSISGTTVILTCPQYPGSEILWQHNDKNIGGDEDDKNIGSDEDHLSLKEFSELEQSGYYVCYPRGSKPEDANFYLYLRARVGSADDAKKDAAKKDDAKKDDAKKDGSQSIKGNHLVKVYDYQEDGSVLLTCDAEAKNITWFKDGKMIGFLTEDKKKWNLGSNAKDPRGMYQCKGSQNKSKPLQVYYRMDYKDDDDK

B1: CE115HA000 H35A one-arm antibody (antibody, human IgG1, kappa, L234A L235A, N297A, name in Kabat numbering)
heavy: QVQLVESGGGVVQPGRSLRLSCAASGFTFSNAWMAWVRQAPGKGLEWVAQIKAKSNNYATYYAESVKGRFTISRDDSKNSLYLQMNSLKTEDTAVYYCRYVHYGAYYGVDAWGQGTTVTVSSASTKGPSVFPLAPSSKSTSGGTAALGCLVKDYFPEPVTVSWNSGALTSGVHTFPAVLQSSGLYSLSSVVTVPSSSLGTQTYICNVNHKPSNTKVDKKVEPKSCDKTHTCPPCPAPEAAGGPSVFLFPPKPKDTLMISRTPEVTCVVVDVSHEDPEVKFNWYVDGVEVHNAKTKPREEQYASTYRVVSVLTVLHQDWLNGKEYKCKVSNKALPAPIEKTISKAKGQPREPQVYTLPPSRCELTKNQVSLSCAVKGFYPSDIAVEWESNGQPENNYKTTPPVLDSDGSFFLVSKLTVDKSRWQQGNVFSCSVMHEALHNHYTQKSLSLSPDYKDDDDK
chain: EPKSSDKTHTCPPCPAPELLGGPSVFLFPPKPKDTLMISRTPEVTCVVVDVSHEDPEVKFNWYVDGVEVHNAKTKPREEQYNSTYRVVSVLTVLHQDWLNGKEYKCKVSNKALPAPIEKTISKAKGQPREPQVCTLPPSRDELTKNQVSLWCLVKGFYPSDIAVEWESNGQPENNYKTTPPVLDSDGSFFLYSKLTVDKSRWQQGNVFSCSVMHEALHNRYTQKSLSLSP
light: DIVMTQSPLSLPVTPGEPASISCRSSQSLVHSNRNTYLHWYQQKPGQAPRLLIYKVSNRFSGVPDRFSGSGSGTDFTLKISRVEAEDVGVYYCGQGTQVPYTFGQGTKLEIKRTVAAPSVFIFPPSDEQLKSGTASVVCLLNNFYPREAKVQWKVDNALQSGNSQESVTEQDSKDSTYSLSSTLTLSKADYEKHKVYACEVTHQGLSSPVTKSFNRGEC
B2: CE115HA000 A32Y one-arm antibody (antibody, human IgG1, kappa, L234A L235A, N297A, name in Kabat numbering)
heavy: B1 heavy with A32Y, A35H
chain: B1 chain
light: B1 light
B3: CE115HA000 A52aD one-arm antibody (antibody, human IgG1, kappa, L234A L235A, N297A, name in Kabat numbering)
heavy: B1 heavy with A35H, A53D
chain: B1 chain
light: B1 light
B4: CE115HA000 A52aE one-arm antibody (antibody, human IgG1, kappa, L234A L235A, N297A, name in Kabat numbering)
heavy: B1 heavy with A35H, A53E
chain: B1 chain
light: B1 light
B5: CE115HA000 A52aG one-arm antibody (antibody, human IgG1, kappa, L234A L235A, N297A, name in Kabat numbering)
heavy: B1 heavy with A35H, A53G
chain: B1 chain
light: B1 light
B6: CE115HA000 A52aP one-arm antibody (antibody, human IgG1, kappa, L234A L235A, N297A, name in Kabat numbering)
heavy: B1 heavy with A35H, A53P
chain: B1 chain
light: B1 light
B7: CE115HA000 A52aS one-arm antibody (antibody, human IgG1, kappa, L234A L235A, N297A, name in Kabat numbering)
heavy: B1 heavy with A35H, A53S
chain: B1 chain
light: B1 light
B8: CE115HA000 A52aV one-arm antibody (antibody, human IgG1, kappa, L234A L235A, N297A, name in Kabat numbering)
heavy: B1 heavy with A35H, A53V
chain: B1 chain
light: B1 light
B9: CE115HA000 A52aY one-arm antibody (antibody, human IgG1, kappa, L234A L235A, N297A, name in Kabat numbering)
heavy: B1 heavy with A35H, A53Y
chain: B1 chain
light: B1 light
B10: CE115HA000 A56D one-arm antibody (antibody, human IgG1, kappa, L234A L235A, N297A, name in Kabat numbering)
heavy: B1 heavy with A35H, A59D
chain: B1 chain
light: B1 light
B11: dBBDu183H Y94D/dBBDu072L (antibody, name in Kabat numbering, V domains shown)
VH: QVQLVESGGGLVQPGRSLRLSCAASGFTFSNAWMHWVRQAPGKGLEWVAQIKDKGNAYAAYYAPSVKGRFTISRDDSKNSIYLQMNSLKTEDTAVYYCHDVHYASASTVLPAFGVDAWGQGTTVTVSS
VL: DIVMTQSPLSLPVTPGEPASISCQASQELVHMNRNTYLHWYQQKPGQAPRLLIYKVSNRFPGVPDRFSGSGSGTDFTLKISRVEAEDVGVYYCAQGTSVPFTFGQGTKLEIK
B12: dBBDu183H Y94E/dBBDu072L (antibody, name in Kabat numbering, V domains shown)
VH: B11 VH with D100E
VL: B11 VL
B13: dBBDu183H Y94F/dBBDu072L (antibody, name in Kabat numbering, V domains shown)
VH: B11 VH with D100F
VL: B11 VL
B14: dBBDu183H Y94G/dBBDu072L (antibody, name in Kabat numbering, V domains shown)
VH: B11 VH with D100G
VL: B11 VL
B15: dBBDu183H Y94H/dBBDu072L (antibody, name in Kabat numbering, V domains shown)
VH: B11 VH with D100H
VL: B11 VL
B16: dBBDu183H Y94K/dBBDu072L (antibody, name in Kabat numbering, V domains shown)
VH: B11 VH with D100K
VL: B11 VL
B17: dBBDu183H Y94N/dBBDu072L (antibody, name in Kabat numbering, V domains shown)
VH: B11 VH with D100N
VL: B11 VL
B18: dBBDu183H Y94Q/dBBDu072L (antibody, name in Kabat numbering, V domains shown)
VH: B11 VH with D100Q
VL: B11 VL
B19: dBBDu183H Y94R/dBBDu072L (antibody, name in Kabat numbering, V domains shown)
VH: B11 VH with D100R
VL: B11 VL
B20: dBBDu183H Y94S/dBBDu072L (antibody, name in Kabat numbering, V domains shown)
VH: B11 VH with D100S
VL: B11 VL
B21: dBBDu183H Y94T/dBBDu072L (antibody, name in Kabat numbering, V domains shown)
VH: B11 VH with D100T
VL: B11 VL
B22: dBBDu183H Y94V/dBBDu072L (antibody, name in Kabat numbering, V domains shown)
VH: B11 VH with D100V
VL: B11 VL
B23: dBBDu183H Y94W/dBBDu072L (antibody, name in Kabat numbering, V domains shown)
VH: B11 VH with D100W
VL: B11 VL
B24: dBBDu183H Y97D/dBBDu072L (antibody, name in Kabat numbering, V domains shown)
VH: B11 VH with D100Y, Y103D
VL: B11 VL
B25: dBBDu183H Y97E/dBBDu072L (antibody, name in Kabat numbering, V domains shown)
VH: B11 VH with D100Y, Y103E
VL: B11 VL
B26: dBBDu183H Y97F/dBBDu072L (antibody, name in Kabat numbering, V domains shown)
VH: B11 VH with D100Y, Y103F
VL: B11 VL
B27: dBBDu183H Y97G/dBBDu072L (antibody, name in Kabat numbering, V domains shown)
VH: B11 VH with D100Y, Y103G
VL: B11 VL
B28: dBBDu183H Y97H/dBBDu072L (antibody, name in Kabat numbering, V domains shown)
VH: B11 VH with D100Y, Y103H
VL: B11 VL
B29: dBBDu183H Y97K/dBBDu072L (antibody, name in Kabat numbering, V domains shown)
VH: B11 VH with D100Y, Y103K
VL: B11 VL
B30: dBBDu183H Y97N/dBBDu072L (antibody, name in Kabat numbering, V domains shown)
VH: B11 VH with D100Y, Y103N
VL: B11 VL
B31: dBBDu183H Y97Q/dBBDu072L (antibody, name in Kabat numbering, V domains shown)
VH: B11 VH with D100Y, Y103Q
VL: B11 VL
B32: dBBDu183H Y97R/dBBDu072L (antibody, name in Kabat numbering, V domains shown)
VH: B11 VH with D100Y, Y103R
VL: B11 VL
B33: dBBDu183H Y97S/dBBDu072L (antibody, name in Kabat numbering, V domains shown)
VH: B11 VH with D100Y, Y103S
VL: B11 VL
B34: dBBDu183H Y97T/dBBDu072L (antibody, name in Kabat numbering, V domains shown)
VH: B11 VH with D100Y, Y103T
VL: B11 VL
B35: dBBDu183H Y97V/dBBDu072L (antibody, name in Kabat numbering, V domains shown)
VH: B11 VH with D100Y, Y103V
VL: B11 VL
B36: dBBDu183H Y97W/dBBDu072L (antibody, name in Kabat numbering, V domains shown)
VH: B11 VH with D100Y, Y103W
VL: B11 VL

The binders below were run against T2, CD3 epsilon homodimer protein (UniProt P07766 23-126) (assay: SPR (Biacore T200), CD3 epsilon homodimer on CM4 chip, one-arm antibody as analyte, 25 C;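 note: homodimer attached to the sensor surface via amine coupling, HBS-EP+ used as running buffer during binding runs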).
T2 construct: immobilized on Sensor chip CM4 by amine coupling; also called CD3 (CD3 epsilon)
T2 sequence (P07766 23-126): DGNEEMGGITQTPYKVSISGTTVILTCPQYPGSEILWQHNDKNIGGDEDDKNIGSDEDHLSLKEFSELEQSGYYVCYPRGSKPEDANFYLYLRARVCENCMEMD

First: B1
Second: B2
The “ratio of amounts bound (altered form / CE115HA000)” value of the first is lower: 0.17 for the first, 0.33 for the second.

Compared with B3, B4 is lower in “ratio of amounts bound (altered form / CE115HA000)” value: 1.34 for the first, 0.57 for the second.

Going from B5 to B6, the “ratio of amounts bound (altered form / CE115HA000)” value falls from 0.81 to 0.15.

Compared with B7, B8 is lower in “ratio of amounts bound (altered form / CE115HA000)” value: 1.05 for the first, 0.52 for the second.

Compared with B9, B10 is higher in “ratio of amounts bound (altered form / CE115HA000)” value: 0.31 for the first, 0.51 for the second.

Target: T1, Human CD3eg linker
Assay: SPR, vs unmutated H183/L072

B11 and B12 are the same in “fold change of affinity” value: 0 fold for the first, 0 fold for the second.

Compared with B13, B14 is higher in “fold change of affinity” value: 0.4 fold for the first, 1.1 fold for the second.

First: B15
Second: B16
The “fold change of affinity” value of the first is higher: 0.5 fold for the first, 0 fold for the second.

First: B17
Second: B18
The “fold change of affinity” value of the first is lower: 0 fold for the first, 0.4 fold for the second.

Compared with B19, B20 is lower in “fold change of affinity” value: 0.3 fold for the first, 0 fold for the second.

Going from B21 to B22, the “fold change of affinity” value rises from 0.3 fold to 2.6 fold.

Compared with B23, B24 is lower in “fold change of affinity” value: 0.4 fold for the first, 0 fold for the second.

B25 and B26 are the same in “fold change of affinity” value: 0 fold for the first, 0 fold for the second.

B27 and B28 are the same in “fold change of affinity” value: 0 fold for the first, 0 fold for the second.

B29 and B30 are the same in “fold change of affinity” value: 0 fold for the first, 0 fold for the second.

B31 and B32 are the same in “fold change of affinity” value: 0 fold for the first, 0 fold for the second.

B33 and B34 are the same in “fold change of affinity” value: 0 fold for the first, 0 fold for the second.

Going from B35 to B36, the “fold change of affinity” value rises from 0 fold to 0.2 fold.
